Source: publication PMC8784342, “Investigation of sugar binding kinetics of the E. coli sugar/H^+ symporter XylE using solid-supported membrane-based electrophysiology” (The Journal of Biological Chemistry, 2021)
“And” between values parts separate entries of the source, which are not always exact repeats. Equal values may be shown once.

B1: wt LacY (Escherichia coli K-12) (protein)
chain: MYYLKNTNFWMFGLFFFFYFFIMGAYFPFFPIWLHDINHISKSDTGIIFAAISLFSLLFQPLFGLLSDKLGLRKYLLWIITGMLVMFAPFFIFIFGPLLQYNILVGSIVGGIYLGFCFNAGAPAVEAFIEKVSRRSNFEFGRARMFGCVGWALCASIVGIMFTINNQFVFWLGSGCALILAVLLFFAKTDAPSSATVANAVGANHSAFSLKLALELFRQPKLWFLSLYVIGVSCTYDVFDQQFANFFTSFFATGEQGTRVFGYVTTMGELLNASIMFFAPLIINRIGGKNALLLAGTIMSVRIIGSSFATSALEVVILKTLHMFEVPFLLVGCFKYITSQFEVRFSATIYLVCFCFFKQLAMIFMSVLAGNMYESIGFQGAYLVLGLVALGFTLISVFTLSGPGPLSLLRRQVNEVA
notes: made in house; host or cells: E. coli XL1-Blue
B2: wt FucP (Escherichia coli K-12) (protein)
chain: MGNTSIQTQSYRAVDKDAGQSRSYIIPFALLCSLFFLWAVANNLNDILLPQFQQAFTLTNFQAGLIQSAFYFGYFIIPIPAGILMKKLSYKAGIITGLFLYALGAALFWPAAEIMNYTLFLVGLFIIAAGLGCLETAANPFVTVLGPESSGHFRLNLAQTFNSFGAIIAVVFGQSLILSNVPHQSQDVLDKMSPEQLSAYKHSLVLSVQTPYMIIVAIVLLVALLIMLTKFPALQSDNHSDAKQGSFSASLSRLARIRHWRWAVLAQFCYVGAQTACWSYLIRYAVEEIPGMTAGFAANYLTGTMVCFFIGRFTGTWLISRFAPHKVLAAYALIAMALCLISAFAGGHVGLIALTLCSAFMSIQYPTIFSLGIKNLGQDTKYGSSFIVMTIIGGGIVTPVMGFVSDAAGNIPTAELIPALCFAVIFIFARFRSQTATN
notes: made in house; host or cells: E. coli BL21 DE3

How the values were obtained:
Type in all cases: biochemical, Escherichia coli
[1] = substrate: OC[C@H]1O[C@@H](O[C@@H]2[C@@H](CO)O[C@](O)(CO)[C@H]2O)[C@H](O)[C@@H](O)[C@H]1O; test: SSM-based electrophysiology, proteoliposomes with wt LacY
Experimental: (§1) Reconstitution of purified proteins (2–20 mg/ml) was carried out with E. coli phospholipids (Avanti Polar Lipids, E. coli polar lipid extract). Preformed liposomes (0.2–2 ml, 10 mg/ml) were dissolved in 1% (w/v) n-octyl-β-D-glucoside, and the protein suspension was mixed on ice to a concentration of 0.2 mg protein/mg lipid (LPR 5).
Wt XylE, wt FucP, and the mutant proteins were reconstituted using overnight incubation in 400 mg/ml BioBeads (SM-2 Adsorbent Media, Bio-Rad) at 4 °C. After reconstitution, the samples were diluted to 2.5 mg/ml lipid concentration, frozen in liquid nitrogen, and stored at −80 °C. For wt LacY and mutant proteins, this procedure was not successful. […]
For measurements, a single solution exchange configuration ([23]) was employed that consisted in three phases of 0.5 s duration each: Flow of nonactivating solution (NA), activating solution (A), and nonactivating solution (NA). […] When pH dependence is determined, pH of NA and A solutions during one experiment are kept constant. […]
(§2) Instruments with different time resolution were used as required. […] Currents were recorded throughout the entire time and amplified with a current amplifier set to a gain of […] and a rise time of 10 ms (low time-resolution set up) or 3 ms (high time-resolution set up).
All NA solutions were buffered in 100 mM KPi at a given pH value. […] Therefore, only transient currents were recorded. […]

[2] = substrate: OC[C@@H]1OC(O)[C@@H](O)[C@H](O)[C@@H]1O; test: SSM-based electrophysiology, proteoliposomes with wt FucP; settings: other: pH 7.6, minor substrate, peak currents, low time-resolution set up
Experimental: as §1
(§3) Wt XylE, wt FucP, and the mutant proteins were reconstituted using overnight incubation in 400 mg/ml BioBeads (SM-2 Adsorbent Media, Bio-Rad) at 4 °C. After reconstitution, the samples were diluted to 2.5 mg/ml lipid concentration, frozen in liquid nitrogen, and stored at −80 °C. For wt LacY and mutant proteins, this procedure was not successful. We, therefore, applied the previously established n-octyl-β-D-glucoside dilution method (1:100) ([69]).
(§4) SSM measurements were performed as described ([20], [23]). After thawing the sample and sonication in a water bath, 30 μl of proteoliposomes (2.5 mg/ml lipid at LPR 5) was allowed to adsorb for 1 to 2 h to an octadecanethiol/phosphatidylcholine hybrid bilayer on a gold surface (the sensor).
(§5) For measurements, a single solution exchange configuration ([23]) was employed that consisted in three phases of 0.5 s duration each: Flow of nonactivating solution (NA), activating solution (A), and nonactivating solution (NA). Only the activating solution contained the sugar. When pH dependence is determined, pH of NA and A solutions during one experiment are kept constant. Between experiments using different pH values, the sensor was incubated at the new pH for 3 min to equilibrate the intraliposomal pH.
as §2
(§6) All NA solutions were buffered in 100 mM KPi at a given pH value. […] Sugar concentration jumps initiated sugar-proton symport, and charge transfer was measured by capacitive coupling. Therefore, only transient currents were recorded. […]

[3] = substrate: OC1OC[C@@H](O)[C@@H](O)[C@@H]1O; test: as above
Experimental: as §1, §3, §4, §5, §2, §6

[4] = other: pH 7.6, minor substrate, peak currents, low time-resolution set up
[5] = other: pH 7.6, peak currents, Hill equation

Row | Protein | Km [1, 4] | K0.5 [1, 5] [mM] | Km [2] [mM] | Km [3, 4] [mM] | K0.5 [3, 5] [mM]
1 | B1 | 2.27 ± 0.54 mM and 2.3 ± 0.6 mM | 6.94 ± 3.58 | – | – | –
2 | B2 | – | – | 7.4 ± 1.3 | 12.2 ± 2.8 | 80 ± 40
